In the DeepSol protein solubility set:

Assay: soluble on expression in E. coli; label from the status in PepcDB or PDB records

Soluble on expression in E. coli, not soluble:
MGSDKIHHHHHHMSELTDLLLQGPRSAPELRQRLAISQATFSRLVAREDRVIRFGKARATRYALLRPYRGIERIPVWRVDDTGKAHKFADIRLCWPQGSCLVTGADGDEQWFDGLPWYLTDLRPQGFLGRAWGRKLAAQLNLTDDIRLWQEEDVLYALTVFNGEYTGGWLVGEGNYQRWITAQHPAEIPLDQKLTHYEQLASDALAGEIVGSSAGGEQPKFTYYAQTPSGNKHVLVKFTVPQQTAVSQRWGDLLIAESIAAQILRDGGIHAIESTVLVTSNRQVFLEAERFDCKGNDGRLPIVSLEAVQSEFISSPGSWPQAMRRLCEQQLVTHQSVAQTEVIWAFGRLIANSDMHAGNLSFYLSEPPFALTPVYDMLPMVYAPNSAGMLRDAAIEVKFDLNVSKSAWLTAIPLAQQFWQTVARDPRISEAFRHIAQEMPEKIRQIEEKVARMGG, MGSDKIHHHHHHMSESEYKIADGSGKFLQAVKDGRRMKDAQWSKGRILLSNKRIVLAGSEGKRNLPLSEVQGLSGRHDVNQTVAKVGNYVSIRMTNESVMLVSLGDNTETFESKLYGALLDQTELQVKHPAVEGGVVTDEQFERARIKVDESELSVAMSNGSFVSVELDDVGSAEAASLEVNGDTKPVLKVEHTVNRDTSVQTYFATDSHTASILESLLTKEAEKSQGSVELSETEKRVLMALYSGVSSFEIPDFLGMDVDEVESIFERLIEVDVLEEVRKRREVTMKTRGRNIASEAINEE, MGSDKIHHHHHHMSETTGLQLRSLIKASGDLEVSLVPVSIPEPGPDEVVVRVEATPINPSDLGLLFGAADMSSAKASGTPDAPVITAKVPEAAMKAMAGRLDESMPVGNEGAGTVIKAGSSDAAQALLGKTVAMIGGAMYAQYRLIKAADCLKLQDGTTAAEGASCFVNPLTALGMTETMKREGHKALVHTAAASNLGQMLNRICLKDGIDLVNIVRSEAQAKLLREIGAKYVVDSTAPTFLDDLTEALVKTGATIAFDAIGGGRLAGQILGCMEAAIGKTATGPYSRYGSNVLKQVYIYGSLDTKPTEIVRNFGFAWAAGGWLLFPFLQKIGAADAAKLRARVAAEIKTTFASRYTKVVSLKEALTLDAIAIYNKRATGEKYLIDPTK, MGSDKIHHHHHHMSFFPGPDPLAGDKPACDAIEHLIIPRTSDIGGLQVRRALPTAKRRLVGPFIFFDRMGPALLRAGQAIDVRPHPHIGLSTVTYLFDGEIKHRDSLGTEMVIRPGDVNLMTAGRGIVHSERSPENQRGHERSLSGLQTWLALPDAMEEIDPVFAHTEERMLPHLADGGVRARVVIGQFEGAASPVSTFTDTIYVDLMIEPGKSAPFAANWEERALYILSGEAIIAGDHFDNNQLLVFRPGDEITITAGPAGCHVMLFGGAALGSPRHIWWNFVSSSKERIDKAKEEWRTGRFDIVPGDEEEFIPLPAS, MGSDKIHHHHHHMSFKSSIAKMAGKSSYWFLHTFRSGGSSLPGKITTKIDPTILKDLGKDYDVIVITGTNGKTLTTALTVKVLRQKFDHVLTNPTGSNMEQGIVTTFLTDHKSKNGKNIAILEVDEANVIKVTQYIKPLAFVFTNIFRDQMDRYGEIYTTYRKILDGVKLAPEATIIANGDMPIFNSVDLPNPVVYYGFNNQPDGEMKADPNTDGVVCPRCEHIIHYKFISYSNQGKYYCPNCGWERPELTYQLTQITKLTPNLSKFFIDASNFTLHIGGLYNVYNALAAYSVGKFMGVPTSSIQKALNDPDERVFGRQEQINVDGKEITIVLVKNPVGLNQVIDMVGTESEPFSFVGLLNANYADGIDTSWIWDGNFEKLTQMPIQQYMTGGERYKDITFRLKVAGIEDNQLWTYDNLKDAVSNIKNLPTKRVYVFATYTAMLQLRKQLATEGYIKEGI, MGSDKIHHHHHHMSGPAGLIVRMDGFNLPAGYLASDEARAISFAYDDRYIAAGGPPLSLSMPLEQVSFGDVTARAFFDNLLPENDQMQRVMDREGLARDDIVGLLSHLGADCSGAISCLPIGADPIKVPGVLSEDYELLAPGAIAEIARSLAERQRLPDTITDPSPVAGVQRKIALTHTPQGFAKPRPGRKVPTTHILKVPETRLRRDARLEAAAARLASALGLDVSIPEAIVIDGVDALLITRFDRVVRDGVVYRLHQEDFAQAMGLPATLKYQRNGAPGRQFDAQAIARVLDQTEAPALSRTAFLSATIFNLLIGNTDNHAKNHGLLYRQGRAPILAPLYDLLPSRMNLDFNDQLSFNIGAADHPDAITFDDMMAFFEVFGMRRAAAARFIENVIKPMIEALERATLGLAGERLKDMDDLIGRETEQLVEVLGLDVAVRERDYYPKVRHALAPS, MGSDKIHHHHHHMSGTAEVNPITVDVYLDITVENISTLKDLTVKFDNYDEDLHYVKEVTDNSVKVDGIIPGIYSVTVSGTAIDTENNEYYINGNSVNAALFKHGSALNIEVQGLKVSPLIFKEIYYCGSRPEKGGVYFRDQFYEIYNNSADILYLDGIYFANLTPGTATTKLPIWPEADGNNYAYGERVWKFPGNGTEYPLAPGESCIISQFAANHQLDIYNPQSPIDGSSSEFEFNMNNPNFPDQAAYDMQHVFYQGKAEMGSIPQYLTSVFGGAYVIFRVPEGEAWDPVNDENMKTTDLSKPNSNVYYAKIPIKYVLDAVEAVNNESKMNAKRVPGVLDAGITWVGATYCGLGIARKLSTDEEGNPIIREETGTYIYQDTNNSTDDFERGVVPVMRRNGAKMPSWNHTL, MGSDKIHHHHHHMSHEVDPRVDKTRRRLRQALITLLQTETVDNISVQKLTSTAAVTRGTFYLHYKDKPAFVDQALDDLVSELFETAIVTVSVGDIMTNPADPLQRVHVFSLSKALSYISQHAEAFETLLLDQRQLAVNQRINQQMTTWMTKFHRDFQDQFADLEVPVSIQIAYYVSATVGLITDWLANDMIYTPHYLTKCIKKMHHLMTVGSISFTDFFVK, MGSDKIHHHHHHMSHGAGEPYFLTEMSDMAVAGCHVMAKPGGAICNIDCTYCFYLEKEALYPERNKNWRMSDETLEQFIRQHIAAQSGDRIDFAWQGGEPTMMGLPFFRRVVALCEKYGDGRKITHALQTNGILVNDEWARFFAEQHFLIGLSIDGPASLHNHYRFNRAGKGTHEQVVAAMARLKAHHVDFNTLTVVGKHNVGHAADVYEFLLAAGSRFIQFIPLVERMSTDNSSVLNLVMPGESAATLAPWTVPSWQYGEFLNQIFDIWVRRDVDRVYVQMFDVALAAWTAQQPVLCVHSETCGHAFALESNGDLYNCDHFVYPEHLLGNIHQHSIKALNNSERAIAFGEAKRETLTADCRRCDYRFVCHGGCPKHRFAVSPSGHPAHNYLCAGYKHFFQHVTPYMNVWRELLAQGYPMASIMRWLAQDARKDTGAVSRNHPCPCGSGKKYKKCCGKA, MGSDKIHHHHHHMSHPPLIVHVIFHLGVGGLENGLVNLINHIPADRYRHAIICLKGFSEFHKRLNRDDVEIIALNKREGKDFSVYGKLYRVFRQLKPDIVHTRNLTAMEAQVVAAVAGVKARVHGEHGRDIFDLDGKNWKYNLLRKAIRPFIHHFITVSKDLENWLIDTVKVSPVKVHQIYNGVEHLRFHPGGTVPVEIFPPDFFAGRPFVVGSVGRMAAVKDFPTLVQAFLMLRNELSEIDRPLRLIIAGEGVARAECEAMLRSAGVEQFAWLPGERDDIPQLMQAMDVFVLPSLGEGISNTVLEAMASGLPVIATRVGGNTELVLEGETGRLVPSGDPVALARAISQYHQDNTAVYKHGQHARAIIEQQFSMRSMTNGYLAVYDRVLGYKSKTETIN, MGSDKIHHHHHHMSIDNVSGTSSNTGNVNGSKRAAGSGATETGQSVKGSSNLGKDEFLKLLVAQLKNQDPMSPQQNGEFIAQLAQFSTVEGVQSLNKSMESILSNYQSSQALQASSLVGRKVIVATDKSVVDTKDTFKASLNLPVSSSNVWVNVYDDKGTVVNRINLGQQAAGSVSFMWDGKDSSGNIMPPGTYKFEAQTSIDGKTYGLQTYLPANVDSVTLGQNGGELMLNLAGLGSIALSKVQIIGQ, MGSDKIHHHHHHMSKAKRLMELMMVINRKRRFTVKELAEEFSVSSRTILRDLQELSELGVPLYSEVGPHGGYEVLNERVLPPIAFTEEEAVAIFFTVHALRHFSALPFQAESSSVNHKFYSYMPEDVKERIDQLKNRFDFETPMRPLATPYLPTLLDAAIKQNVVSIEYETSQEKTKREIQPIGVYARDGFWYCPSYCFLREDMRLFRCDRITYVTEQTTNNPLNFRHVHLGNWQSYMKQERNVLDFYVELSQDGVQRCVAEQWLKPHLHIRQDGSGWLEGPFPESEVPYFSYYFIGFGHDATVKQPVQLVTLIKKSLRELLSKYNGEKEGLPQKSF, MGSDKIHHHHHHMSKFWEKEFTCPFCGTKFKKKMVFFDSIKIKARDIDLKPVFEDVNPMFYEVVTCPNCYFSAFDKDFETITIKGEETERKLKKLLEEAKKKVELKNVENHVEAIKRYALSGMVYSVLNQRKKVAISYLKIAWLFRELGKSEEEKRYLERALKEFESHYKYDYYEESDEPMILFYLGVLNQILGNRKEAARWYELLLRKYDGKSLYAKVGRERWQELRRS, MGSDKIHHHHHHMSKILNTQLIGIFNRLEKQSLEIQMAAQCLIQAIGGEGYVYVKGYDDLQFFESFILHSDERLKSSRKLDAIKDFKEIDSTDRVLLFAPFYNDQVALDIQKLIDLDIDVVLISNKPKTDDFPDHLVHFIDLSTPRPIVYTEDYDKIVQPHAIALNYVYYDIYTQMIEMTRDLEL, MGSDKIHHHHHHMSKILSIIIPTYNAEKFLNKGLSSFLVCRDTDAQTAQHNCKMATEGRFEEIDIDKAILDKLEVIVVNDGTPDKSVEVAQKFVDWYPDTFVIVNKTNGGHGSAINTGVEHVRGKYLKVVDADDWVDTLALKKLITTLQVLEAAQEKQDTRVMDAMLMSYTTYDLQKAAKGDIPYEEHLVVPGTKHDKSVDIQNLGGPYSSQVIAKHFDDVYWGLTFHGILYNTAFYRGLAHKLAEGIFYEDQEYAAVPMAYADTIYVYDEQLYQYRIGDVSQSISMESSLKRLSHYETVIRTLIAEGGNSEEFAPGGKQIWGIKTAKFIDDYYQLCLIKNPDKKMLRDRMEKFTSEIKSADGYIYGLIEKNYKVFRMLNKLHMNEKVYQKVFIPMVHLIRK, MGSDKIHHHHHHMSKMLTLAVRAHDVGTKISPVELAKKIAETNITSIQFALGISYPEYASAAVLSPGLGSQLKNIFEDEKITISVLSCYINLIHPDLEEREKRLHQFETYIRYDSMFGAKIVATETGSIYETIYYTEDNYTEEAYEEVLFSVRRLCREAEKYGIIVGIEPGINHPIHTIEKMQRLIDEVASTNLGIILDPTNLIRVDIDKTYLEIVEEAFECFGEKIVAFHLKDFIIRNQQIFPVAIGEGQVPLTETIQFLNKHKPGLFTIFEETPFEKIASAYQKVSQYHSI, MGSDKIHHHHHHMSKRKLTTKFEEEPLNFGTGMWNVGLTPNVCRCTLLLPTSCMTCLVGTGRTASGRWPATYVPFDESAISELKRYASFIAISNHSDLLSDPSGSRRFICINITGRIRNGVAINYLQPYAQAVQELREGECFYFSPEEEAVLMENNQEFELQTPVGHLFQQYFRSADEGEKCETLLAVDILGRIQKKSGFKLSATKIVHLGRILRKLGVPCKKMKNGNFYCVVEL
